Source: patent publication US20170016905A1 (VAR2 PHARMACEUTICALS, published 2017)

B1: DBL1X-DBL2Xa (FCR3, Baculo) (other)
chain: HSDSGKYDPCEKKLPPYDDNDQWKCQQNSSDGSGKPENICVPPRRERLCTYNLENLKFDKIRDNNAFLADVLLTARNEGEKIVQNHPDTNSSNVCNALERSFADLADIIRGTDQWKGTNSNLEKNLKQMFAKIRENDKVLQDKYPKDQKYTKLREAWWNANRQKVWEVITCGARSNDLLIKRGWRTSGKSDRKKNFELCRKCGHYEKEVPTKLDYVPQFLRWLTEWIEDFYREKQNLIDDMERHREECTREDHKSKEGTSYCSTCKDKCKKYCECVKKWKTEWENQENKYKDLYEQNKNKTSQKNTSRYDDYVKDFFEKLEANYSSLENYIKGDPYFAEYATKLSFILNPSDANNPSGETANHNDEACNCNESGISSVGQAQTSGPSSNKTCITHSSIKTNKKKECKDVKLGVRENDKDLKICVIEDTSLSGVDNCCCQDLLGILQENCSDNKRGSSSNDSCDNKNQDECQKKLEKVFASLTNGYKCDKCKSGTSRSKKKWIWKKSSGNEEGLQEEYANTIGLPPRTQSLYLGNLPKLENVCEDVKDINFDTKEKFLAGCLIVSFHEGKNLKKRYPQNKNSGNKENLCKALEYSFADYGDLIKGTSIWDNEYTKDLELNLQNNFGKLFGKYIKKNNTAEQDTSYSSLDELRESWWNTNKKYIWTAMKHGAEMNITTCNADGSVTGSGSSCDDIPTIDLIPQYLRFLQEWVENFCEQRQAKVKDVITNCKSCKESGNKCKTECKTKCKDECEKYKKFIEACGTAGGGIGTAGSPWSKRWDQIYKRYSKHIEDAKRNRKAGTKNCGTSSTTNAA
notes: Range derived by me from the FCR3 DBL1X forward primer and the FCR3 DBL2Xa reverse primer (STTNAA), which ends 93 residues before the DBL2Xb border; not shown: V5 and His tag at the C-terminal (modified pAcGP67-A)
B2: ID1-DBL2Xa (3D7, Baculo) (other)
chain: LSFILNSSDANNPSEKIQKNNDEVCNCNESGIASVEQEQISDPSSNKTCITHSSIKANKKKVCKHVKLGVRENDKDLRVCVIEHTSLSGVENCCCQDFLRILQENCSDNKSGSSSNGSCNNKNQEACEKNLEKVLASLTNCYKCDKCKSEQSKKNNKNWIWKKSSGKEGGLQKEYANTIGLPPRTQSLCLVVCLDEKGKKTQELKNIRTNSELLKEWIIAAFHEGKNLKPSHEKKNDDNGKKLCKALEYSFADYGDLIKGTSIWDNEYTKDLELNLQKIFGKLFRKYIKKNNTAEQDTSYSSLDELRESWWNTNKKYIWLAMKHGAGMNSTTCCGDGSVTGSGSSCDDIPTIDLIPQYLRFLQEWVEHFCKQRQEKVKPVIENCKSCKESGGTCNGECKTECKNKCEVYKKFIEDCKGGDGTAGSSWVKRWDQIYKRYSKYIEDAKRNRKAGTKNCGPSSTTNAA
notes: not shown: V5 and His tag at the C-terminal (modified pAcGP67-A)

Target: T1, CSPG (bovine) (D8428, Sigma) (bovine, UniProt P21793 31-360, carries chondroitin sulfate A (CSA) glycosaminoglycan chain(s); the filing attributes the binding of VAR2CSA to this glycan)
T1 construct: also called chondroitin sulfate proteoglycan; CSA proteoglycan
T1 sequence (P21793 31-360): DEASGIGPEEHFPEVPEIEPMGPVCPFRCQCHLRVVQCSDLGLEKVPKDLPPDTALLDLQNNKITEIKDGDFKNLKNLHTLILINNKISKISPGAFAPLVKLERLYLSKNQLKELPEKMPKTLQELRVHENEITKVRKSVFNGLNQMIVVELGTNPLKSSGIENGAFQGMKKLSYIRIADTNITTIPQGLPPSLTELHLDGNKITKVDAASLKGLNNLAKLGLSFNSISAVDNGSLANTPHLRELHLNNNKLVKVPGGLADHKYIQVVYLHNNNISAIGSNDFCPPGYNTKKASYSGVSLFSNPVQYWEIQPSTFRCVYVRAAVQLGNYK
Test: quartz crystal microbalance (Attana A100); legend: N/A = no KD value could be determined, due to a lack of binding to CSA

Binder	binding result
B1	no binding
B2	no binding
